Source: article PMC12232321

Columns and labels:
[1] = molecular target: LOV1-C57M-SL-LOV2-C250A fusion protein (short linker) (UniProt Q8LPD9); test: crystal structure; fusion protein pre-irradiated with blue light and reoxidised (FMN^·-Met/FMNox); 20% PEG 3350, 0.1 M BIS-TRIS pH 6.5, 0.1 M ammonium sulfate, 5 mg/mL
[2] = molecular target: LOV2-C250A single domain of Phot1; test: crystal structure; LOV2-C250A crystallized in the dark (FMNox)

Substance	stoichiometry N [1]	stoichiometry N [2]
LOV1-C57M-SL-LOV2-C250A fusion protein (short linker) (from UniProt Q8LPD9 17-125)	2	
LOV2-C250A single domain of Phot1 (domain or fragment)		2
